Experimental data as given in article PMC3017119, “Structural Basis for the Recognition of Cellular mRNA Export Factor REF by Herpes Viral Proteins HSV-1 ICP27 and HVS ORF57” (PLoS Pathogens, 2011).

B1: unnamed (parent)
chain 1: MATDIDMLIDLGLDLSDSDLDEDPPEPAESRRDDLESDSSGECSSSDEDMEDPHGEDGPEPILDAARPAVRPSRPEDPGVPSTQTPRPTERQGPNDPQPAPHSVWSRLGARRPSCSPEQHGGKVARLQPPPTKAQPARGGRRGRRRGRGRGGPGAADGLSDPRRRAPRTNRNPGGPRPGAGWTDGPGAPHGEAWRGSEQPDPPGGQRTRGVRQAPPPLMTLAIAPPPADPRAPAPERKAPAADTIDATTRLVLRSISERAAVDRISESFGRSAQVMHDPFGGQPFPAANSPWAPVLAGQGGPFDAETRRVSWETLVAHGPSLYRTFAGNPRAASTAKAMRDCVLRQENFIEALASADETLAWCKMCIHHNLPLRPQDPIIGTTAAVLDNLATRLRPFLQCYLKARGLCGLDELCSRRRLADIKDIASFVFVILARLANRVERGVAEIDYATLGVGVGEKMHFYLPGACMAGLIEILDTHRQECSSRVCELTASHIVAPPYVHGKYFYCNSLF
chain 2: not shown

Variants of: B1
Assay: co-immunoprecipitation with densitometry of Western blot
Settings: 293T cells transfected with GFP-tagged ICP27 and its mutants, IP with polyclonal GFP-specific antibody and Protein A agarose, 3 independent experiments, read off a plot, scale: relative binding normalised against GFP control
chain 1 W105A was tested, and the response was 0.32.
In the case of chain 1 W105A R107A L108A, the response is reported as 0.3.
For chain 1 R107A L108A, the response was 0.37.
